In patent US20230416330A1, “Optimized GIP Peptide Analogues” (Antag Therapeutics ApS, priority 2019, published 2023):
Starred links: 1 amine or outer side, 2 acyl side, 3 side chain; linkers in the order of their positions; H or OH if unused. Non-standard residues stand in square brackets, D forms with d. Groups on a side chain read outwards from the residue. No end group written: not given here. *: point of attachment. C18 diacid = O=C(O)CCCCCCCCCCCCCCCCC(=O)*; C16 diacid = O=C(O)CCCCCCCCCCCCCCC(=O)*; γGlu = O=C(O)[C@H](CCC(=O)[*:2])N[*:1]; Glutaryl = O=C(CCCC(=O)[*:2])[*:1]; Nle = CCCC[C@H](N)C(=O)O; AEEA = NCCOCCOCC(=O)O; Aib = CC(C)(N)C(=O)O

B1: AT710 (peptide)
peptide: EGTFISEYSIAMEKIK([AEEA-AEEA-γGlu-C18 diacid])QQEFVEWLLAQKPSSGAPPPS-OH
B2: AT755 (peptide)
peptide: Glutaryl-GTFISEYSI[Aib][Nle]EKIK(C16 diacid)QQEFVEWLLAQKPSSGAPPPS-OH
SMILES: CCCC[C@H](NC(=O)C(C)(C)NC(=O)[C@@H](NC(=O)[C@H](CO)NC(=O)[C@H](Cc1ccc(O)cc1)NC(=O)[C@H](CCC(=O)O)NC(=O)[C@H](CO)NC(=O)[C@@H](NC(=O)[C@H](Cc1ccccc1)NC(=O)[C@@H](NC(=O)CNC(=O)CCCC(=O)O)[C@@H](C)O)[C@@H](C)CC)[C@@H](C)CC)C(=O)N[C@@H](CCC(=O)O)C(=O)N[C@@H](CCCCN)C(=O)N[C@H](C(=O)N[C@@H](CCCCNC(=O)CCCCCCCCCCCCCCC(=O)O)C(=O)N[C@@H](CCC(N)=O)C(=O)N[C@@H](CCC(N)=O)C(=O)N[C@@H](CCC(=O)O)C(=O)N[C@@H](Cc1ccccc1)C(=O)N[C@H](C(=O)N[C@@H](CCC(=O)O)C(=O)N[C@@H](Cc1c[nH]c2ccccc12)C(=O)N[C@@H](CC(C)C)C(=O)N[C@@H](CC(C)C)C(=O)N[C@@H](C)C(=O)N[C@@H](CCC(N)=O)C(=O)N[C@@H](CCCCN)C(=O)N1CCC[C@H]1C(=O)N[C@@H](CO)C(=O)N[C@@H](CO)C(=O)NCC(=O)N[C@@H](C)C(=O)N1CCC[C@H]1C(=O)N1CCC[C@H]1C(=O)N1CCC[C@H]1C(=O)N[C@@H](CO)C(=O)O)C(C)C)[C@@H](C)CC
B3: AT712 (peptide)
peptide: EGTFISEYSI[Aib]LDKIK([AEEA-AEEA-γGlu-C18 diacid])QQDFVEWLLAQKPSSGAPPPS-OH
modifications: N-terminus assumed
SMILES: CC[C@H](C)[C@H](NC(=O)[C@H](CCCCN)NC(=O)[C@H](CC(=O)O)NC(=O)[C@H](CC(C)C)NC(=O)C(C)(C)NC(=O)[C@@H](NC(=O)[C@H](CO)NC(=O)[C@H](Cc1ccc(O)cc1)NC(=O)[C@H](CCC(=O)O)NC(=O)[C@H](CO)NC(=O)[C@@H](NC(=O)[C@H](Cc1ccccc1)NC(=O)[C@@H](NC(=O)CNC(=O)[C@@H](N)CCC(=O)O)[C@@H](C)O)[C@@H](C)CC)[C@@H](C)CC)C(=O)N[C@@H](CCCCNC(=O)COCCOCCNC(=O)COCCOCCNC(=O)CC[C@H](NC(=O)CCCCCCCCCCCCCCCCC(=O)O)C(=O)O)C(=O)N[C@@H](CCC(N)=O)C(=O)N[C@@H](CCC(N)=O)C(=O)N[C@@H](CC(=O)O)C(=O)N[C@@H](Cc1ccccc1)C(=O)N[C@H](C(=O)N[C@@H](CCC(=O)O)C(=O)N[C@@H](Cc1c[nH]c2ccccc12)C(=O)N[C@@H](CC(C)C)C(=O)N[C@@H](CC(C)C)C(=O)N[C@@H](C)C(=O)N[C@@H](CCC(N)=O)C(=O)N[C@@H](CCCCN)C(=O)N1CCC[C@H]1C(=O)N[C@@H](CO)C(=O)N[C@@H](CO)C(=O)NCC(=O)N[C@@H](C)C(=O)N1CCC[C@H]1C(=O)N1CCC[C@H]1C(=O)N1CCC[C@H]1C(=O)N[C@@H](CO)C(=O)O)C(C)C
B4: AT707 (peptide)
peptide: Glutaryl-GTFISEYSIALEKIK([AEEA-AEEA-γGlu-C18 diacid])QQEFVEWLLAQKPSSGAPPPS-OH
SMILES: CC[C@H](C)[C@H](NC(=O)[C@H](CO)NC(=O)[C@H](Cc1ccc(O)cc1)NC(=O)[C@H](CCC(=O)O)NC(=O)[C@H](CO)NC(=O)[C@@H](NC(=O)[C@H](Cc1ccccc1)NC(=O)[C@@H](NC(=O)CNC(=O)CCCC(=O)O)[C@@H](C)O)[C@@H](C)CC)C(=O)N[C@@H](C)C(=O)N[C@@H](CC(C)C)C(=O)N[C@@H](CCC(=O)O)C(=O)N[C@@H](CCCCN)C(=O)N[C@H](C(=O)N[C@@H](CCCCNC(=O)COCCOCCNC(=O)COCCOCCNC(=O)CC[C@H](NC(=O)CCCCCCCCCCCCCCCCC(=O)O)C(=O)O)C(=O)N[C@@H](CCC(N)=O)C(=O)N[C@@H](CCC(N)=O)C(=O)N[C@@H](CCC(=O)O)C(=O)N[C@@H](Cc1ccccc1)C(=O)N[C@H](C(=O)N[C@@H](CCC(=O)O)C(=O)N[C@@H](Cc1c[nH]c2ccccc12)C(=O)N[C@@H](CC(C)C)C(=O)N[C@@H](CC(C)C)C(=O)N[C@@H](C)C(=O)N[C@@H](CCC(N)=O)C(=O)N[C@@H](CCCCN)C(=O)N1CCC[C@H]1C(=O)N[C@@H](CO)C(=O)N[C@@H](CO)C(=O)NCC(=O)N[C@@H](C)C(=O)N1CCC[C@H]1C(=O)N1CCC[C@H]1C(=O)N1CCC[C@H]1C(=O)N[C@@H](CO)C(=O)O)C(C)C)[C@@H](C)CC
B5: AT706 (peptide)
peptide: Glutaryl-GTFISEYSI[Aib][Nle]EKIK([AEEA-AEEA-γGlu-C18 diacid])QQEFVEWLLAQKPSSGAPPPS-OH
SMILES: CCCC[C@H](NC(=O)C(C)(C)NC(=O)[C@@H](NC(=O)[C@H](CO)NC(=O)[C@H](Cc1ccc(O)cc1)NC(=O)[C@H](CCC(=O)O)NC(=O)[C@H](CO)NC(=O)[C@@H](NC(=O)[C@H](Cc1ccccc1)NC(=O)[C@@H](NC(=O)CNC(=O)CCCC(=O)O)[C@@H](C)O)[C@@H](C)CC)[C@@H](C)CC)C(=O)N[C@@H](CCC(=O)O)C(=O)N[C@@H](CCCCN)C(=O)N[C@H](C(=O)N[C@@H](CCCCNC(=O)COCCOCCNC(=O)COCCOCCNC(=O)CC[C@H](NC(=O)CCCCCCCCCCCCCCCCC(=O)O)C(=O)O)C(=O)N[C@@H](CCC(N)=O)C(=O)N[C@@H](CCC(N)=O)C(=O)N[C@@H](CCC(=O)O)C(=O)N[C@@H](Cc1ccccc1)C(=O)N[C@H](C(=O)N[C@@H](CCC(=O)O)C(=O)N[C@@H](Cc1c[nH]c2ccccc12)C(=O)N[C@@H](CC(C)C)C(=O)N[C@@H](CC(C)C)C(=O)N[C@@H](C)C(=O)N[C@@H](CCC(N)=O)C(=O)N[C@@H](CCCCN)C(=O)N1CCC[C@H]1C(=O)N[C@@H](CO)C(=O)N[C@@H](CO)C(=O)NCC(=O)N[C@@H](C)C(=O)N1CCC[C@H]1C(=O)N1CCC[C@H]1C(=O)N1CCC[C@H]1C(=O)N[C@@H](CO)C(=O)O)C(C)C)[C@@H](C)CC
B6: AT709 (peptide)
peptide: EGTFISEYSI[Aib]MEKIK([AEEA-AEEA-γGlu-C18 diacid])QQEFVEWLLAQKPSSGAPPPS-OH
B7: AT708 (peptide)
peptide: Glutaryl-GTFISEYSI[Aib]MEKIK([AEEA-AEEA-γGlu-C18 diacid])QQEFVEWLLAQKPSSGAPPPS-OH
SMILES: CC[C@H](C)[C@H](NC(=O)[C@H](CCCCN)NC(=O)[C@H](CCC(=O)O)NC(=O)[C@H](CCSC)NC(=O)C(C)(C)NC(=O)[C@@H](NC(=O)[C@H](CO)NC(=O)[C@H](Cc1ccc(O)cc1)NC(=O)[C@H](CCC(=O)O)NC(=O)[C@H](CO)NC(=O)[C@@H](NC(=O)[C@H](Cc1ccccc1)NC(=O)[C@@H](NC(=O)CNC(=O)CCCC(=O)O)[C@@H](C)O)[C@@H](C)CC)[C@@H](C)CC)C(=O)N[C@@H](CCCCNC(=O)COCCOCCNC(=O)COCCOCCNC(=O)CC[C@H](NC(=O)CCCCCCCCCCCCCCCCC(=O)O)C(=O)O)C(=O)N[C@@H](CCC(N)=O)C(=O)N[C@@H](CCC(N)=O)C(=O)N[C@@H](CCC(=O)O)C(=O)N[C@@H](Cc1ccccc1)C(=O)N[C@H](C(=O)N[C@@H](CCC(=O)O)C(=O)N[C@@H](Cc1c[nH]c2ccccc12)C(=O)N[C@@H](CC(C)C)C(=O)N[C@@H](CC(C)C)C(=O)N[C@@H](C)C(=O)N[C@@H](CCC(N)=O)C(=O)N[C@@H](CCCCN)C(=O)N1CCC[C@H]1C(=O)N[C@@H](CO)C(=O)N[C@@H](CO)C(=O)NCC(=O)N[C@@H](C)C(=O)N1CCC[C@H]1C(=O)N1CCC[C@H]1C(=O)N1CCC[C@H]1C(=O)N[C@@H](CO)C(=O)O)C(C)C
B8: AT705 (peptide)
peptide: Glutaryl-GTFISEYSI[Aib]LEKIK([AEEA-AEEA-γGlu-C18 diacid])QQEFVEWLLAQKPSSGAPPPS-OH
SMILES: CC[C@H](C)[C@H](NC(=O)[C@H](CCCCN)NC(=O)[C@H](CCC(=O)O)NC(=O)[C@H](CC(C)C)NC(=O)C(C)(C)NC(=O)[C@@H](NC(=O)[C@H](CO)NC(=O)[C@H](Cc1ccc(O)cc1)NC(=O)[C@H](CCC(=O)O)NC(=O)[C@H](CO)NC(=O)[C@@H](NC(=O)[C@H](Cc1ccccc1)NC(=O)[C@@H](NC(=O)CNC(=O)CCCC(=O)O)[C@@H](C)O)[C@@H](C)CC)[C@@H](C)CC)C(=O)N[C@@H](CCCCNC(=O)COCCOCCNC(=O)COCCOCCNC(=O)CC[C@H](NC(=O)CCCCCCCCCCCCCCCCC(=O)O)C(=O)O)C(=O)N[C@@H](CCC(N)=O)C(=O)N[C@@H](CCC(N)=O)C(=O)N[C@@H](CCC(=O)O)C(=O)N[C@@H](Cc1ccccc1)C(=O)N[C@H](C(=O)N[C@@H](CCC(=O)O)C(=O)N[C@@H](Cc1c[nH]c2ccccc12)C(=O)N[C@@H](CC(C)C)C(=O)N[C@@H](CC(C)C)C(=O)N[C@@H](C)C(=O)N[C@@H](CCC(N)=O)C(=O)N[C@@H](CCCCN)C(=O)N1CCC[C@H]1C(=O)N[C@@H](CO)C(=O)N[C@@H](CO)C(=O)NCC(=O)N[C@@H](C)C(=O)N1CCC[C@H]1C(=O)N1CCC[C@H]1C(=O)N1CCC[C@H]1C(=O)N[C@@H](CO)C(=O)O)C(C)C

Molecular target: T1, human GIP receptor (human, UniProt P48546 22-466)
T1 sequence (looked up): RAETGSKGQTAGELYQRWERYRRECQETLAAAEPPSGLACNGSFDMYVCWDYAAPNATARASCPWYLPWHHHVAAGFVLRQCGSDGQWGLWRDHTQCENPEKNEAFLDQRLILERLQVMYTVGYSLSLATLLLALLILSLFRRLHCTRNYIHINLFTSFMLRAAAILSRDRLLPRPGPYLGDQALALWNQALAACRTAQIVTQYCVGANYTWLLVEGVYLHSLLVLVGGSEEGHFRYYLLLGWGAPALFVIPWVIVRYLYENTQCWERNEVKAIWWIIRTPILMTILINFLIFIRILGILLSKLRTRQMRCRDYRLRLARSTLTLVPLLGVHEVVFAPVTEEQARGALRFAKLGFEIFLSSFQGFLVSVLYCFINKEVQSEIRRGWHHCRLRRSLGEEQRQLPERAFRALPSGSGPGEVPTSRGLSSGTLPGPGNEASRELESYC
Assay: cell-based or functional assay

Binder	nM (Kb, Gaddum assay, cAMP) [nM]	pKb (Gaddum assay, cAMP)
B1	0.73	9.1
B2	0.23	9.6
B3	0.39	9.4
B4	0.28	9.6
B5	0.26	9.6
B6	0.24	9.6
B7	0.2	9.7
B8	0.23	9.6
